One protein from paper PMC5734611 (Nature nanotechnology, 2016) can be followed below.

The data set concerns the molecule itself. As to the kind of experiment: high-speed atomic force microscopy.

B1: bacterial glycerol uptake facilitator GlpF (natural protein)
chain: MSQTSTLKGQSIAEFLGTGLLIFFGVGSVAALKVAGASFGQWEISVIWGLGVAMAIYLTAGVSGAHLNPAVTIALWLFASFDKRKVIPFIVSQVAGAFSAAALVYGLYYNLFFDFEQTHHIVRGSVESVDLAGTFSTYPNPHINFVQAFAVEMVITAILMGLILALTDDGNGVPRGPLAPLLIGLLIAVIGASMGPLTGFAMNPARDFGPKVFAWLAGWGNVAFTGGRDIPYFLVPLFGPIVGAIVGAFAYRKLIGRHLPCDICVVEEKETTTPSEQKASL
modifications: Atto 488 maleimide on cysteines (C261 and C264)
The stoichiometry N is the number of molecules, sites or subunits per partner or assembly. Take B1: the “stoichiometry N” value amounted to 4.
